Laboratory results published in PMC5434554, “Structural similarities and functional differences clarify evolutionary relationships between tRNA healing enzymes and the myelin enzyme CNPase” (BMC Biochemistry, 2017).

B1: ScTrl1 CPDase (Saccharomyces cerevisiae S288C) (protein)
chain: GQADSSLTNAKQILNEIHKAYPILVPEIPKDDEIETAFRRSLDYKPTVRKIVGKGNNNQQKTPKLIKPTYISAKIENYDEIIELVKRCIASDAELTEKFKHLLASGKVQKELHITLGHVMSSREKEAKKLWKSYCNRYTDQITEYNNNRIENAQGSGNNQNTQVKTTDKLNFRLEKLCWDEKIIAIVVELSKDKDGCIIDENNEKIKGLCCQNKIPHITLCKLESGVKAVYSNVLCEKVESAEVDENIKVVKLDNSKEFVGSVYLNF
B2: ScTrl1 PNK/CPDase (Saccharomyces cerevisiae S288C) (protein)
chain: RTKFLIFPISVIGCGKTTTSQTLVNLFPDSWGHIQNDDITGKDKSQLMKKSLELLSKKEIKCVIVDRNNHQFRERKQLFEWLNELKEDYLVYDTNIKVIGVSFAPYDKLSEIRDITLQRVIKRGNNHQSIKWDELGEKKVVGIMNGFLKRYQPVNLDKSPDNMFDLMIELDFGQADSSLTNAKQILNEIHKAYPILVPEIPKDDEIETAFRRSLDYKPTVRKIVGKGNNNQQKTPKLIKPTYISAKIENYDEIIELVKRCIASDAELTEKFKHLLASGKVQKELHITLGHVMSSREKEAKKLWKSYCNRYTDQITEYNNNRIENAQGSGNNQNTQVKTTDKLNFRLEKLCWDEKIIAIVVELSKDKDGCIIDENNEKIKGLCCQNKIPHITLCKLESGVKAVYSNVLCEKVESAEVDENIKVVKLDNSKEFVGSVYLNF

Substrate: NC(=O)c1ccc[n+]([C@@H]2O[C@H](COP(=O)(O)OP(=O)(O)OC[C@H]3O[C@@H](n4cnc5c(N)ncnc54)[C@@H]4OP(=O)(O)O[C@@H]43)[C@@H](O)[C@H]2O)c1
Test: purified protein
Conditions: 100 mM MES pH 6.0, 3 mM MgCl2, 5 mM glucose-6-phosphate, 25 °C, CPDase site

| Protein | Km [µM] | kcat [s⁻¹] | kcat/Km [M⁻¹ s⁻¹] |
| --- | --- | --- | --- |
| B1 | 237 ± 27 | 275 | 1.16e+06 |
| B2 | 420 ± 35 | 317 | 750000 |
